Measurements published in patent US20160264649A1.

Experiments:
Assay in all cases: cell-based or functional assay
[1] = target: HIV-1 Env of isolate MGRM-D-016 (subtype D) (HIV-1)
[2] = target: HIV-1 Env of pseudovirus isolate MGRM-G-009 (subtype G) (HIV-1)
[3] = target: HIV-1 Env of pseudovirus isolate MGRM-G-004 (subtype G) (HIV-1)
[4] = target: HIV-1 Env of pseudovirus isolate MGRM-G-016 (subtype G) (HIV-1)
[5] = target: HIV-1 Env of pseudovirus isolate MGRM-G-027 (subtype G) (HIV-1)
[6] = target: HIV-1 Env of isolate 92UG005 (subtype D) (HIV-1)
[7] = target: HIV-1 Env of pseudovirus isolate MGRM-G-025 (subtype G) (HIV-1)
[8] = target: HIV-1 Env of isolate 92UG114 (subtype D) (HIV-1)
[9] = target: HIV-1 Env of isolate MGRM-D-011 (subtype D) (HIV-1)
[10] = target: HIV-1 Env of isolate MGRM-F1-004 (subtype F) (HIV-1)
[11] = target: HIV-1 Env of pseudovirus isolate MGRM-G-015 (subtype G) (HIV-1)
[12] = target: HIV-1 Env of isolate MGRM-D-012 (subtype D) (HIV-1)
[13] = target: HIV-1 Env of isolate MGRM-F1-020 (subtype F) (HIV-1)
[14] = target: HIV-1 Env of isolate MGRM-D-014 (subtype D) (HIV-1)
[15] = target: HIV-1 Env of isolate MGRM-D-008 (subtype D) (HIV-1)
[16] = target: HIV-1 Env of isolate MGRM-D-018 (subtype D) (HIV-1)
[17] = target: HIV-1 Env of isolate 92UG001 (subtype D) (HIV-1)
[18] = target: HIV-1 Env of isolate MGRM-F1-008 (subtype F) (HIV-1)
[19] = target: HIV-1 Env of pseudovirus isolate MGRM-G-006 (subtype G) (HIV-1)
[20] = target: HIV-1 Env of isolate MGRM-D-002 (subtype D) (HIV-1)
[21] = target: HIV-1 Env of isolate 98CN006 (subtype CRF08_BC) (HIV-1)
[22] = target: HIV-1 Env of isolate MGRM-D-024 (subtype D) (HIV-1)
[23] = target: HIV-1 Env of isolate 98CN009 (subtype CRF07_BC) (HIV-1)
[24] = target: HIV-1 Env of pseudovirus isolate MGRM-G-001 (subtype G) (HIV-1)
[25] = target: HIV-1 Env of isolate MGRM-F1-006 (subtype F) (HIV-1)
[26] = target: HIV-1 Env of isolate MGRM-D-029 (subtype D) (HIV-1)
[27] = target: HIV-1 Env of pseudovirus isolate MGRM-G-013 (subtype G) (HIV-1)
[28] = target: HIV-1 Env of isolate MGRM-F1-017 (subtype F) (HIV-1)
[29] = target: HIV-1 Env of isolate MGRM-D-020 (subtype D) (HIV-1)
[30] = target: HIV-1 Env of isolate MGRM-D-022 (subtype D) (HIV-1)
[31] = target: HIV-1 Env of pseudovirus isolate MGRM-G-019 (subtype G) (HIV-1)
[32] = target: HIV-1 Env of isolate MGRM-D-004 (subtype D) (HIV-1)
[33] = target: HIV-1 Env of isolate MGRM-D-003 (subtype D) (HIV-1)
[34] = target: HIV-1 Env of isolate MGRM-D-026 (subtype D) (HIV-1)
[35] = target: HIV-1 Env of isolate MGRM-F1-016 (subtype F) (HIV-1)
[36] = target: HIV-1 Env of isolate MGRM-F1-015 (subtype F) (HIV-1)
[37] = target: HIV-1 Env of isolate MGRM-F1-018 (subtype F) (HIV-1)
[38] = target: HIV-1 Env of isolate MGRM-D-028 (subtype D) (HIV-1)
[39] = target: HIV-1 Env of pseudovirus isolate MGRM-G-024 (subtype G) (HIV-1)
[40] = target: HIV-1 Env of isolate MGRM-D-005 (subtype D) (HIV-1)
[41] = target: HIV-1 Env of isolate MGRM-F1-014 (subtype F) (HIV-1)
[42] = target: HIV-1 Env of isolate MGRM-F1-013 (subtype F) (HIV-1)
[43] = target: HIV-1 Env of pseudovirus isolate MGRM-G-017 (subtype G) (HIV-1)
[44] = target: HIV-1 Env of isolate MGRM-F1-023 (subtype F) (HIV-1)
[45] = target: HIV-1 Env of isolate 92UG046 (subtype D) (HIV-1)
[46] = target: HIV-1 Env of isolate MGRM-F1-021 (subtype F) (HIV-1)
[47] = target: HIV-1 Env of pseudovirus isolate MGRM-G-028 (subtype G) (HIV-1)
[48] = target: HIV-1 Env of isolate MGRM-D-019 (subtype D) (HIV-1)
[49] = target: HIV-1 Env of isolate 92UG024 (subtype D) (HIV-1)
[50] = target: HIV-1 Env of isolate MGRM-D-021 (subtype D) (HIV-1)
[51] = target: envelope of aMLV pseudovirus (negative control)
[52] = target: HIV-1 Env of isolate MGRM-F1-022 (subtype F) (HIV-1)
[53] = target: HIV-1 Env of isolate MGRM-F1-010 (subtype F) (HIV-1)
[54] = target: HIV-1 Env of pseudovirus isolate MGRM-G-014 (subtype G) (HIV-1)
[55] = target: HIV-1 Env of isolate MGRM-D-013 (subtype D) (HIV-1)
[56] = target: HIV-1 Env of isolate MGRM-D-001 (subtype D) (HIV-1)
[57] = target: HIV-1 Env of pseudovirus isolate MGRM-G-011 (subtype G) (HIV-1)
[58] = target: HIV-1 Env of isolate MGRM-F1-012 (subtype F) (HIV-1)

B1: PGT-131 (antibody, V domains shown)
VH: QVQLQESGPGLVKPSETLSLTCTVSGDSINTGHHYWGWVRQVPGKGPEWIAHIHYNTAVLHNPALKSRVTISIFTLKNLITLSLSNVTAADTAVYFCVRSGGDILYYIEWQKPHWFYPWGPGILVTVSS
VL: QSALTQPPSASGSLGQSLTISCSGTGSDIGSWNFVSWYQQFPGRAPNLIIFEVNRRRSGVPDRFSGSKSGNTASLTVSGLRSEDEAEYFCSSLSGRWDIVFGGGTKVTVL
[1]
  IC50 (neutralization): > 50 µg/mL
[2]
  IC50: > 50 µg/mL
[3]
  IC50: > 50 µg/mL
[4]
  IC50: > 50 µg/mL
[5]
  IC50: 2.9 µg/mL
[6]
  IC50 (neutralization): 0.854 µg/mL
[7]
  IC50: 7.75 µg/mL
[8]
  IC50 (neutralization): > 50 µg/mL
[9]
  IC50 (neutralization): 0.756 µg/mL
[10]
  IC50 (neutralization): 0.114 µg/mL
[11]
  IC50: > 50 µg/mL
[12]
  IC50 (neutralization): > 50 µg/mL
[13]
  IC50 (neutralization): > 50 µg/mL
[14]
  IC50 (neutralization): 0.516 µg/mL
[15]
  IC50 (neutralization): > 50 µg/mL
[16]
  IC50 (neutralization): 0.148 µg/mL
[17]
  IC50 (neutralization): > 50 µg/mL
[18]
  IC50 (neutralization): 2.74 µg/mL
[19]
  IC50: > 50 µg/mL
[20]
  IC50 (neutralization): 11.2 µg/mL
[21]
  IC50 (neutralization): 35.3 µg/mL
[22]
  IC50 (neutralization): > 50 µg/mL
[23]
  IC50 (neutralization): 4.05 µg/mL
[24]
  IC50: 0.404 µg/mL
[25]
  IC50 (neutralization): > 50 µg/mL
[26]
  IC50 (neutralization): > 50 µg/mL
[27]
  IC50: > 50 µg/mL
[28]
  IC50 (neutralization): > 50 µg/mL
[29]
  IC50 (neutralization): > 50 µg/mL
[30]
  IC50 (neutralization): > 50 µg/mL
[31]
  IC50: > 50 µg/mL
[32]
  IC50 (neutralization): 2.01 µg/mL
[33]
  IC50 (neutralization): 19.6 µg/mL
[34]
  IC50 (neutralization): > 50 µg/mL
[35]
  IC50 (neutralization): > 50 µg/mL
[36]
  IC50 (neutralization): > 50 µg/mL
[37]
  IC50 (neutralization): > 50 µg/mL
[38]
  IC50 (neutralization): > 50 µg/mL
[39]
  IC50: 10.7 µg/mL
[40]
  IC50 (neutralization): > 50 µg/mL
[41]
  IC50 (neutralization): > 50 µg/mL
[42]
  IC50 (neutralization): > 50 µg/mL
[43]
  IC50: > 50 µg/mL
[44]
  IC50 (neutralization): > 50 µg/mL
[45]
  IC50 (neutralization): > 50 µg/mL
[46]
  IC50 (neutralization): > 50 µg/mL
[47]
  IC50: 0.466 µg/mL
[48]
  IC50 (neutralization): > 50 µg/mL
[49]
  IC50 (neutralization): > 50 µg/mL
[50]
  IC50 (neutralization): 0.106 µg/mL
[51]
  IC50: > 50 µg/mL
[52]
  IC50 (neutralization): > 50 µg/mL
[53]
  IC50 (neutralization): > 50 µg/mL
[54]
  IC50: 4.31 µg/mL
[55]
  IC50 (neutralization): 4.14 µg/mL
[56]
  IC50 (neutralization): > 50 µg/mL
[57]
  IC50: > 50 µg/mL
[58]
  IC50 (neutralization): > 50 µg/mL

B2: PGT-135 (antibody, V domains shown)
VH: QLQMQESGPGLVKPSETLSLSCTVSGDSIRGGEWGDKDYHWGWVRHSAGKGLEWIGSIHWRGTTHYKESLRRRVSMSIDTSRNWFSLRLASVTAADTAVYFCARHRHHDVFMLVPIAGWFDVWGPGVQVTVSS
VL: EIVMTQSPDTLSVSPGETVTLSCRASQNINKNLAWYQYKPGQSPRLVIFETYSKIAAFPARFVASGSGTEFTLTINNMQSEDVAVYYCQQYEEWPRTFGQGTKVDIK
[1]
  IC50 (neutralization): > 50 µg/mL
[2]
  IC50: > 50 µg/mL
[3]
  IC50: > 50 µg/mL
[4]
  IC50: > 50 µg/mL
[5]
  IC50: 0.062 µg/mL
[6]
  IC50 (neutralization): > 50 µg/mL
[7]
  IC50: 0.592 µg/mL
[8]
  IC50 (neutralization): 1.29 µg/mL
[9]
  IC50 (neutralization): 23.5 µg/mL
[10]
  IC50 (neutralization): 0.211 µg/mL
[11]
  IC50: > 50 µg/mL
[12]
  IC50 (neutralization): > 50 µg/mL
[13]
  IC50 (neutralization): 0.168 µg/mL
[14]
  IC50 (neutralization): 2.21 µg/mL
[15]
  IC50 (neutralization): > 50 µg/mL
[16]
  IC50 (neutralization): 0.039 µg/mL
[17]
  IC50 (neutralization): > 50 µg/mL
[18]
  IC50 (neutralization): > 50 µg/mL
[19]
  IC50: > 50 µg/mL
[20]
  IC50 (neutralization): > 50 µg/mL
[21]
  IC50 (neutralization): 0.429 µg/mL
[22]
  IC50 (neutralization): > 50 µg/mL
[23]
  IC50 (neutralization): 0.071 µg/mL
[24]
  IC50: 0.393 µg/mL
[25]
  IC50 (neutralization): > 50 µg/mL
[26]
  IC50 (neutralization): 30.8 µg/mL
[27]
  IC50: > 50 µg/mL
[28]
  IC50 (neutralization): 7.79 µg/mL
[29]
  IC50 (neutralization): > 50 µg/mL
[30]
  IC50 (neutralization): > 50 µg/mL
[31]
  IC50: 0.145 µg/mL
[32]
  IC50 (neutralization): > 50 µg/mL
[33]
  IC50 (neutralization): > 50 µg/mL
[34]
  IC50 (neutralization): > 50 µg/mL
[35]
  IC50 (neutralization): > 50 µg/mL
[36]
  IC50 (neutralization): 1.11 µg/mL
[37]
  IC50 (neutralization): > 50 µg/mL
[38]
  IC50 (neutralization): > 50 µg/mL
[39]
  IC50: 0.062 µg/mL
[40]
  IC50 (neutralization): > 50 µg/mL
[41]
  IC50 (neutralization): > 50 µg/mL
[42]
  IC50 (neutralization): 21.1 µg/mL
[43]
  IC50: 0.137 µg/mL
[44]
  IC50 (neutralization): 0.088 µg/mL
[45]
  IC50 (neutralization): > 50 µg/mL
[46]
  IC50 (neutralization): 0.065 µg/mL
[47]
  IC50: > 50 µg/mL
[48]
  IC50 (neutralization): > 50 µg/mL
[49]
  IC50 (neutralization): 0.01 µg/mL
[50]
  IC50 (neutralization): > 50 µg/mL
[51]
  IC50: > 50 µg/mL
[52]
  IC50 (neutralization): 0.964 µg/mL
[53]
  IC50 (neutralization): > 50 µg/mL
[54]
  IC50: > 50 µg/mL
[55]
  IC50 (neutralization): > 50 µg/mL
[56]
  IC50 (neutralization): > 50 µg/mL
[57]
  IC50: > 50 µg/mL
[58]
  IC50 (neutralization): 0.01 µg/mL
